21 sequences from a protein production outcome set (Wang et al. 2014) can be followed below.

The nature of the series: label from the status in PepcDB records.
“MMPNRNTNMLLAYKRLPNWTANSIPETLLNPHNTKVGTWEQLTVLSGKLDVYFFDKDDHVLEKLTFDKDSQMPFIQPQVCYKIEPASNDLECHLTLYCQKGDYFNKKYGMTKTHSEVLFSAPYLKENSKILDLGSGQGRNSLYLTMLGHDVTSVDTNEQSLIHLKNIANEENLPSKINWYDINTANLQETYDFILSTVVFMFLNRPVVPDIIKDMQKHTAIGGYNLIVCAMDTKSYPCPIPFPFTFKKGELKDYYKEWYLIKYNEDLGQLHKTDANGNRLQMQFATLLAKKVK”: the protein production entry is “failed”.
For the sequence “MMPSSSTPNAFQYAWRNPWVRLVVFLGLFYLLYLFIGQITTVLVDFAVAFLIAYLANPLLGWLERGRVRRGLGVFFVLLLFLGLLALAGALVVTVGGQFVQLFQNLPAQIDNLNRILDGAVQWLSGRGIPGLADAQTRMTEALRDWIANIGNNIVPILQNALSSTGTLFNRLISIGGVIGQVLLILLLSVYLMLDYARVNASLLRAFPRPWQPKVLEFSDLIGTAVGGYVRGQLLIAAFIGIFVWLGLTIVGIPSAAAIGFLAGAFNIVPYLGPIIGATPALLLALTLPNAGFKMILVVVVFVLANQIEGNFLSPYILSKTTDLHPVTVLLAILVGVALMGFAGALLAVPLVALGKLMLEKYYYPSRVYSQGP”, the protein production result is reported as “failed”.
The result for “MMPYITDIAALEHVGVAAAWTEKVPAFRVLREKRMLDFRAPITVITGENGVGKSTLLEAIAINAGFDTAGGEHTGKFKPSDNPLQTVAKAHKGKEPMRGYFLRAETHFNVASGYRDEAPGWVNLHHMSHGESVMHIVQNAFVGKGLYLMDEPEAGLSFIRQMAILAELNFLAESGAQIIIVTHSPVLMAIPGAEIWEFSASGELHRGFDFEVTTAFRALRDFFEDPEEIAEYMMDVMMDNKGESLEHHHHHH” reads “failed”.
As for “MMQDCEKLLDEPGRLAAVRRYAVLDTAPEEPFDKLTRLVCNVLEVPYAAVTLIDADRQWFKSLVGLSGSEGPRHESFCTHTIKTRDPMIVPDATLDPRFRDSPLVTGAAGIRSYLGVPLETPDGYNLGALCAVDTAPRTFSTSQIEIMKSFASLVLDELELRQIALSDALTGAMTRRGWLAAVEKEMARGARQGTQAAIVLFDVDHFKAINDTHGHAVGDAVLQALTRRCLLHLGPADALGRIGGEEFAVLVPDAGLPEAMELAERLRRSFSDAPIEVAGQALRVTASFGVQGLDGDTGNAGSWLAAADRRLYEAKAAGRNRCHGG”, the entry is “failed”; as for “MMQHCAPTPRLARFLFVEYRMMRQYELVERVQKYKPDANEALLNKAYVYAMQKHGQQKRANGDPYISHPLEVAAILTEMHLDESTIAVALLHDTIEDTTATRAEIDELFGEDIGRLVEGLTKLKKLDLVTRKAKQAENLRKLLLAISDDVRVLLVKLADRLHNMRTMEYMPADKRSRISEETMEIYAPLAGRMGMQDMRDELEDLSFRYLNPEAYETVTNRLLELETRNEGLIKKIEDELRELLVANGLLGTHVKGRQKKPYSVFRKMQSKSLSFEQLSDVYGFRILVDDIPGCYRALGIVHTRWRVVPGRFKDYISTPKQNDYRSIHTTIVGPSRQRIELQIRTKRMHEIAEFGIAAHALYKDGENGEGDLLSKESNAYSWLRHTIESLAEGDSPEEFLEHTKLELFQDQVFCFTPKGKLIALPRGATPIDFAYAVHTNIGDTTVGAKINGRIMPLVTRLNNGDEVEIIRSGVQVPPAAWEEVVVTGKARSAIRRATRMAIRKQYSGLGYRILERTFERAGKAFSREALKPVLHRLAQKDVEDAIAAVGRGEVSSLDVLRAVFPDYQDERVTVKMTGDDGWFNMRSASGMVFKIPGKSRSVLEDDGAAEMLDGPDPLPIRGLSGNVDVHFSAAGAVPGDRIVGIMEKGKGITIYPIQAPALQRFDDEPERWIDVRWDLDEANKSRFMARVMINALNEPGTLASVAQSIATLDVNIRGLNMVRIGTDFSELALDVEVWDLRQLNQLLSQLKDLDCVSTVARAFD”, “failed”; as for “MMQIDSIEIGGKVYQFFKSDLGNAPLLFIKGSKGYAMCGYLNMETSNKVGDIAVRVMGVKTLDDMLSAKVVEASQEAQKVGINPGDVLRNVIDKL”, “not failed”.
The result for “MMQSRRVQESLVGLVILAGLATLGVGLLWLRGNLAGANSYTLEVELDTAPGLAVGTQVRYRGVQVGRVTAIGFDANGVQVSVRINNVLIPRRAVPEIRQSGFIGQAFLDFTPKERVPEIPEGVTAFAPKCQPELVYCNGDRVTGVRTASLEDLVRAATRFTTALEESGLINNANTLILGATRIVNRADQSLTKVTTALDSFNALSNQARAELRNFGIAAQAVTRAANQISEIVEVNRNTINSSLRNIDSAARELRTTLKALHPLTNQLEQGELLANLDALIKNGAEAAANLNKVSGALSSPLIMLSIAQTLDAARATFINAQKLTNDLLKLTSDPSFQSDLRRLIQILRRLLASSQDLEQQFLALHATSLGEAHEPMPAISAPTAAAKPTKEEEPEP” reads “failed”; that for “MMREFEIERQFNIKIEYIKPNKGVYFVKTNKGNKCLKKINYGIQKLLFVYAAKEHLINNGFKYVDKYCLNTEGNPYALVNEDIYTLSEWIEGRECSFYDTEDLVKASKTLAKMHECSKGYEPPENSKLKSDLGRWPHLIEKRVKALDKMRDMARKKGNKKDFDMNYIKNVDFFKEQGIKSMNVLKNSKYESLCAVAEEEKGFCHHDYTYHNIIINNEDNVYVIDFDYCKRELRAYDISNFMIKVLKRSNWSMKTAELILDSYSSISKLDDDEYGVIYAFLIFPQRFWRLANRYYYNEVNWGQNTFNNKMEELIEERERYIKFIEDFREAYNLQ”, “failed”; that for “MMRFLFVDRIVQLSPGEWIKGIKHVTRDDAYLTTDDHGRLCFMPSLIGETLGQLAAWNVMQHNHFTARPVAGVVSSARLYRPAYVGETILLESNIDSLDEKAVQYHSIAKVGNDIIFTIDGALGPMLPMTEFISTEVIRQQFAEIYRPGDWSSVLALSSPVLIEENCSDCGMINSSMQFDRILASQPGISLIAEKRITRSASYFPDHFPKRPVLPMTVLLECKLNLAKEFIARAKYDRAYRISELRKIKMNEFVHPGDVVVCQVKVKQQMDDELILSYRCEVDGKRVCVVDIVLIPKGK”, “failed”.
With “MMRLANGIVLDKDTTFGELKFSALRREVRIQNEDGSVSDEIKERTYDLKSKGQGRMIQVSIPASVPLKEFDYNARVELINPIADTVATATYQGADVDWYIKADDIVLTKDSSSFKAQPQAKKEPTQDKLEHHHHHH”, the protein production entry is listed as “not failed”.
Take “MMRPKVYFKTFGCRTNLFDTQIMIKNLQNFELTEIEESADIVVVNSCTVTNGADSGVRSYLHRLKSEGKRVYLTGCGVLTRGEEIFTQELAFGVFGHSYKEQIDSLLSQKTRFSFKGDLEHIDSTVITEFIGKSRAFVKVQEGCDFSCSYCIIPSVRGKARSLPVDRIVSQVEILAQHGFGEFVLTGTNVGSYGKESGLNVAKLLKALSQIKGVKRLRLGSLEPSQIDAEFMELLEEPFMARHLHIALQHTSPKMLQIMNRRNEAQGDLALFERLAQKGYALGTDFILGHPGESEEVWKEAWERFVAFPLTHLHAFVYSPREGTPSSLMKDRISGNIAKERMRILQERVRENNHHFRQKGEKLWVLIESEREGGLYQGLDQFFNRIEIRSSDSLAGRWLEVSDYEAESEINRAELL”: the protein production entry is reported as “failed”.
As for “MMRVKFNGKELDTDFKTSLEFFENISKNENDVWIINGFATKENIALNENDELFCIEKNTLPPKDALDAMMRARHTPKLHDKLKNGRVAVCGLGGLGSHIAINLARSGVGYLKLIDFDVIEPSNLNRQAYRVSDLGKFKTEALKEQISEINPYISVEICTLKIDEDNLESLFKDIDIVCEAFDSAIAKAMIAQNFHRFYKDGILICASGLAGYGDSNSIQTRKIAKNFYVCGDLVNGAKLGNGLMAPRVNICAGHQSNLVLELLANKELEHHHHHH”, the entry is “not failed”.
As for “MMRYKEEKEVKKEAFRKYLESSGVLDSLTKVLVSLYEQNDKPSSALEFIQQKLGGPSVSDYEKLQAEKSDLQIKYNELLAKHQETLRELNGVKSLHSRNSSKDDADRETLEAEHTTLVTPHH”, the entry is “failed”; as for “MMSGLVYRKRRRQNMTALERSWFEEAQQSMHGWDFSHLAGRWQTADLPWDYAALVREHLSADDRWLDIDTGGGELMGRFNPQPALTAVTEGWQPNIELLKQTVVKKGITLYPDAAEQLTAVPNSTFDIVTNSHGAMPVKRIAEVLKPGGRFVTQQVGATNNYALSRFFDEHYETAYPDNQLLTVMAQMQAAGFEILRAEQAYAALSFTDVGAIVYYATVIPWEFPHFDVARMLPKLHQLQSLLAINGRVTTFEDRFMIIARKLARRD”, “failed”.
The result for “MMSKVVSKMKSFLGFDEFEDEDEVMEEEEVMEEEESFAPVLSSKKNGKVVNIHTANTAKLMITKPLVYDDATEICTALKNRKIVVINTTSLELRTAQRLIDFVGGACYALCGELQEVEKGVFIVSPSNVEVSNELKSELSNKGMFNWASKLEHHHHHH” reads “not failed”; that for “MMSNLIILPMLLPFVCALILVFTKNKNRISKILSITTMIVNTMISIALLIYVVNHKPITLDFGGWKAPFGIQFLGDSLSLLMVSVSSFVVTLIMAYGFGRGEKRVNRFHLPTFILLLTVGVIGSFLTSDLFNLYVMFEIMLLASFVLVTLGQSVEQLRAAIVYVVLNILGSWLLLLGIGMLYKTVGTLNFSHLAMRLNHMENNQTITMISLVFLVAFSSKAALVIFMWLPKAYAVLNTELAALFAALMTKVGAYALIRFFTLLFDHHPSVTHTLLVFMACITMIIGAFGVIAYKDIKKIAAYQVILSIGFIILGLGSHTISGVNGAIFYLANDIIVKTLLFFVIGSLVYMSGYRNYQYLSGLAKREPFFGVAFVVVIFAIGGVPPFSGFPGKVLIFQGAITNGNYIGLALMIVTSLIAMYSLFRVMFIMYFGDADGEQVQFRPLPIYRKGLLSVLVVVVLAMGIAAPVVLKVTEDATNLNMKEDVFQKNVNTHLKEVNHK”, “failed”; that for “MMTDEARAKLAAIPMLAGYTGPLERLGGLTNLVFRAGDLCLRIPGKGTEEYINRANEAVAAREAAKAGVSPEVLHVDPATGVMVTRYIAGAQTMSPEKFKTRPGSPARAGEAFRKLHGSGAVFPFRFELFAMIDDYLKVLSTKNVTLPAGYHDVVREAGGVRSALAAHPLPLAACHCDPLCENFLDTGERMWIVDWEYSGMNDPLWDLGDLSVEGKFNANQDEELMRAYFGGEARPAERGRVVIYKAMCDLLWTLWGLIQLANDNPVDDFRAYADGRFARCKALMETPEFSRHLAAVRMG”, “not failed”.
With “MMTKFWNDRYKSDEYFYGEEPNTFIKEQAFRLANHNKVIAFAEGEGRNAVFLARQGNEVTAIDYSEDGLEKTKKLAEKHNVNVHTKKVDLLADSLPENEYDAAIMVFGHFHDDYKKMILGKMIQTIKPGGLIMFEVYSKKQINYGTGGPKDVDMLYDPIDILTWCEEHKVIHFFNGEQERIEGKGHTGLADVIQVVIRK”, the protein production entry is reported as “failed”.
On to “MMTKYGVVGTGYFGAELARFMSKVEGAKITAIYDPVNAAPIAKELNCVATATMEALCSHPDVDCVIIASPNYLHKAPVIAAAKAGKHVFCEKPIALNYQDCKDMVDACKEAGVTFMAGHVMNFFHGVRHAKALIKAGEIGEVTQVHTKRNGFEDVQDEISWKKIRAKSGGHLYHHIHELDCTLFIMDETPSLVSMAAGNVAHKGEKFGDEDDVVLITLEFESGRFATLQWGSSFHYPEHYVLIEGTTGAILIDMQNTAGYLIKAGKKTHFLVHESQAEDDDRRNGNISSEMDGAIAYGKPGKRTPMWLSSIMKLEMQYLHDVINGLEPGEEFAKLLTGEAATNAIATADAATLSSNEGRKVKLTEILGLEHHHHHH”, for which the protein production result is “not failed”.
As for “MMTLNAFIEKLSTQPELIEFTETMAVIESHYEFTPTEFANGNTVNLADQNNGSCKIFAFALLNQLSVDQTLACFGQYYRQDVLENPQGDDHQNIRNFMVTGWAGVQFKAQALQAK”, the entry is “failed”; as for “MMTLSDLPSDLAEEVLSKIPVTSLRGVRATCKKWNTLSKDRSFTRKHLAQAKAAAAREFMVVMVMDFQVYLMGINLHKDVDATINGQGKLISLDDSNQVDISYVYHCDSLVLCIPKDCARLVVWNPYWGQTLWFKPTSLRHFPHWYMYAIGYQMRRGNRDAKTSRWLLTCRPTTKTITKNTIDHL”, “failed”.
